Experimental data as given in patent US20250002577A1 (ONCORESPONSE, published 2025).
Numbering of substitutions follows the chain as printed.

B1: B21H1-23 (antibody, human IgG1, kappa)
heavy: not shown
light: DIVMTQSPSSVSASVGDRVTITCQASGNIYSFLAWYQQKPGKAPKLLIYTASNLETGVPSRFSGSGSGTDFTLTISSLQPEDFATYYCLGGLYSSDVSYAFGGGTKVVIKRTVAAPSVFIFPPSDEQLKSGTASVVCLLNNFYPREAKVQWKVDNALQSGNSQESVTEQDSKDSTYSLSSTLTLSKADYEKHKVYACEVTHQGLSSPVTKSFNRGEC
notes: humanized IgG1/kappa, VH2+VL3
B2: B21H1-22 (antibody, human IgG1, kappa)
heavy: not shown
light: B1 light with V3Q, V11L, A43V, F71Y, P80S, F83A
notes: humanized IgG1/kappa, VH2+VL2
B3: B21H1-13 (antibody, human IgG1, kappa)
heavy: not shown
light: B1 light
notes: humanized IgG1/kappa, VH1+VL3
B4: B21H1-42 (antibody, human IgG1, kappa)
heavy: not shown
light: B1 light with V3Q, V11L, A43V, F71Y, P80S, F83A
notes: humanized IgG1/kappa, VH4+VL2
B5: B21H1-15 (antibody, human IgG1, kappa)
heavy: not shown
light: DIQMTQTPSTVEASVGGTVTITCQASGNIYSFLAWYQQKPGQPPKLLIYTASNLETGVPSRFSGSGSGTEYTLTISGLQSDDAATYYCLGGLYSSDVSYAFGGGTEVVVKRTVAAPSVFIFPPSDEQLKSGTASVVCLLNNFYPREAKVQWKVDNALQSGNSQESVTEQDSKDSTYSLSSTLTLSKADYEKHKVYACEVTHQGLSSPVTKSFNRGEC
notes: humanized IgG1/kappa, VH1+VL5

Biological target: T1, human LILRA1 on HEK293-6E cells (human, UniProt O75019 17-489)
T1 construct: whole, on cells; also called hLILRA1
Assay: flow cytometry, HEK293-6E transfectants
Procedure: (§1) To determine that the parent chimera anti LILRB2/1 antibody specifically binds to LILRB2 and LILRB1 and not to other LILRB and LILRA family members, a cross-reactivity assay was performed. Cross-reactivity was assessed by antibody binding to transiently transfected HEK293-6E cells by flow cytometry. Binding was evaluated to HEK293-6E cells transiently transfected with human LILRB-1, -2, -3, -4, and 5 plasmids (Origene, Nos. RC219949, RC217935, RC211228, RC220932, RC206516) or to cells transiently transfected with human LILRA-1, -2, -4, -5, and -6 plasmids (Origene, Nos. RC210808, RC205626, RC220452, RC212310 RC212965). […] At a concentration of 1 μg/mL, no binding of B21A1 or the humanized variants to LILRB-3, -4, or -5 was observed (Table 7). Additionally, no binding to LILRA-1, -2, -4, -5, or -6 was observed, confirming the specificity of B21A1 and its humanized variants to LILRB1 and LILRB2 (Table 8).

| Binder | MFI | binding result |
| --- | --- | --- |
| B1 | 210 MFI | no binding (tested: 1 µg/mL) |
| B2 | 295 MFI | no binding (tested: 1 µg/mL) |
| B3 | 201 MFI | no binding (tested: 1 µg/mL) |
| B4 | 345 MFI | no binding (tested: 1 µg/mL) |
| B5 | 290 MFI | no binding (tested: 1 µg/mL) |

Biological target: T2, human LILRB2 on cells (human, UniProt Q8N423 22-597)
T2 construct: whole, on cells; also called hLILRB2; LILRB2-HEK293T
T2 sequence (Q8N423 22-597): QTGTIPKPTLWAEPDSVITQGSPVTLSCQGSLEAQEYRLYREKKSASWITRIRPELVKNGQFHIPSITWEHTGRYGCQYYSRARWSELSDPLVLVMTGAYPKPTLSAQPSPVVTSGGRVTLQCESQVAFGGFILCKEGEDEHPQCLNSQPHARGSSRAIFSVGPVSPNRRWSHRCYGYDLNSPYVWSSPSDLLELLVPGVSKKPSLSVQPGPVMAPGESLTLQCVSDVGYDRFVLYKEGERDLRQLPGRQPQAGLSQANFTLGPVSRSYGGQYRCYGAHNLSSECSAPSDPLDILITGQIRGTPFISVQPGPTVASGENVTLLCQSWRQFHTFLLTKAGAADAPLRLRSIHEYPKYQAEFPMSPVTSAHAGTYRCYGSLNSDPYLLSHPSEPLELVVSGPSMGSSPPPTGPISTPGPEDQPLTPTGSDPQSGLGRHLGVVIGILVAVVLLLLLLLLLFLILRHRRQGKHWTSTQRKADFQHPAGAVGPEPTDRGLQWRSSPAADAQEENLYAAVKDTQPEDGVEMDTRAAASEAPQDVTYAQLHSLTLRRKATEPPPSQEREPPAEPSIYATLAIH
Assay: flow cytometry, HEK293-6E transfectants
Procedure: as §1

| Binder | MFI |
| --- | --- |
| B1 | 5430 MFI |
| B2 | 5590 MFI |
| B3 | 5370 MFI |
| B4 | 5630 MFI |
| B5 | 5700 MFI |

Biological target: T3, human LILRA6 on HEK293-6E cells (human, UniProt Q6PI73 24-481)
T3 construct: whole, on cells; also called hLILRA6
T3 sequence (Q6PI73 24-481): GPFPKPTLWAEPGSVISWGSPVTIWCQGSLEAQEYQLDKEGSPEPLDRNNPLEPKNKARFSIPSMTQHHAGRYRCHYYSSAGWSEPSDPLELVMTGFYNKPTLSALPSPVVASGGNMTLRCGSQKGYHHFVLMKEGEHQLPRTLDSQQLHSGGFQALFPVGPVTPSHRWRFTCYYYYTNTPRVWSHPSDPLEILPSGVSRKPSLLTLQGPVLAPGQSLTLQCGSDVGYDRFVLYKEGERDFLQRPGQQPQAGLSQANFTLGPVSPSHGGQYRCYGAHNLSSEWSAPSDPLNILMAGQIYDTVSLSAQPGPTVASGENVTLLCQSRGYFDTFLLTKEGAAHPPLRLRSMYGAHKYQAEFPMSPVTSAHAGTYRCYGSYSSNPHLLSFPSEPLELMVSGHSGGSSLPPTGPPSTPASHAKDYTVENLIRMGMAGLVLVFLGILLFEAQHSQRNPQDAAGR
Assay: flow cytometry, HEK293-6E transfectants
Procedure: as §1

| Binder | MFI | binding result |
| --- | --- | --- |
| B1 | 140 MFI | no binding (tested: 1 µg/mL) |
| B2 | 140 MFI | no binding (tested: 1 µg/mL) |
| B3 | 142 MFI | no binding (tested: 1 µg/mL) |
| B4 | 147 MFI | no binding (tested: 1 µg/mL) |
| B5 | 147 MFI | no binding (tested: 1 µg/mL) |

Biological target: T4, human LILRB5 on HEK293-6E cells (human, UniProt O75023 24-590)
T4 construct: whole, on cells; also called hLILRB5
T4 sequence (O75023 24-590): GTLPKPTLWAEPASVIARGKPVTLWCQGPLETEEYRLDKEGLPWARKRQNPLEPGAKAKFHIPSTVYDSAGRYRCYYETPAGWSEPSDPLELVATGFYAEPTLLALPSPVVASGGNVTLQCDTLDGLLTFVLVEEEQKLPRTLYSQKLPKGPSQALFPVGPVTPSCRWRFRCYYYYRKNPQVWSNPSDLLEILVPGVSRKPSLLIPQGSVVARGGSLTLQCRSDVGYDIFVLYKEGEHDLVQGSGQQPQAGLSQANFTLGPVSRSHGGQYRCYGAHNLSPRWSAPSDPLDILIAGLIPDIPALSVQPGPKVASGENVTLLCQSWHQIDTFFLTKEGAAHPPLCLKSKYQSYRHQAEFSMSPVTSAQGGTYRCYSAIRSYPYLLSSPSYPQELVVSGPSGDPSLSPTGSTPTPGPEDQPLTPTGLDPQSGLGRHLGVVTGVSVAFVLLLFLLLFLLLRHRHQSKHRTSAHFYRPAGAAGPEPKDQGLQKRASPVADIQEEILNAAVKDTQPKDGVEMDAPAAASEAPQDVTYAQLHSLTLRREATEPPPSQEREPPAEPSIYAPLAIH
Assay: flow cytometry, HEK293-6E transfectants
Procedure: as §1

| Binder | MFI | binding result |
| --- | --- | --- |
| B1 | 92 MFI | no binding (tested: 1 µg/mL) |
| B2 | 91.4 MFI | no binding (tested: 1 µg/mL) |
| B3 | 89.8 MFI | no binding (tested: 1 µg/mL) |
| B4 | 92.8 MFI | no binding (tested: 1 µg/mL) |
| B5 | 93.8 MFI | no binding (tested: 1 µg/mL) |

Biological target: T5, human LILRA2 on HEK293-6E cells (human, UniProt Q8N149 24-483)
T5 construct: whole, on cells; also called hLILRA2
T5 sequence (Q8N149 24-483): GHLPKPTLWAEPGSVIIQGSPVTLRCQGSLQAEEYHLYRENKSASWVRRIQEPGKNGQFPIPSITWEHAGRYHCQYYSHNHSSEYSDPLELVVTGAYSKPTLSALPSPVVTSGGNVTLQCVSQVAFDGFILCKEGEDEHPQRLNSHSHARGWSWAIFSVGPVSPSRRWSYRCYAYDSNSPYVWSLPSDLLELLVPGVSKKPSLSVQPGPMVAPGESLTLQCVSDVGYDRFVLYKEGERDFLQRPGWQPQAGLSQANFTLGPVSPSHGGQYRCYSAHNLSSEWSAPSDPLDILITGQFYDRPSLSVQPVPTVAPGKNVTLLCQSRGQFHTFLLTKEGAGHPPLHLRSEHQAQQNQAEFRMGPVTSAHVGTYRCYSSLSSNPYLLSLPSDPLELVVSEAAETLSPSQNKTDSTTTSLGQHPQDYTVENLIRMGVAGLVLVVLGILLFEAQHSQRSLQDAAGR
Assay: flow cytometry, HEK293-6E transfectants
Procedure: as §1

| Binder | MFI | binding result |
| --- | --- | --- |
| B1 | 27.5 MFI | no binding (tested: 1 µg/mL) |
| B2 | 27.6 MFI | no binding (tested: 1 µg/mL) |
| B3 | 25.8 MFI | no binding (tested: 1 µg/mL) |
| B4 | 27.1 MFI | no binding (tested: 1 µg/mL) |
| B5 | 28.9 MFI | no binding (tested: 1 µg/mL) |

Biological target: T6, human LILRB1 on cells (human, UniProt Q8NHL6 24-650)
T6 construct: whole, on cells; also called hLILRB1; LILRB1-expressing 721.221 cells
T6 sequence (Q8NHL6 24-650): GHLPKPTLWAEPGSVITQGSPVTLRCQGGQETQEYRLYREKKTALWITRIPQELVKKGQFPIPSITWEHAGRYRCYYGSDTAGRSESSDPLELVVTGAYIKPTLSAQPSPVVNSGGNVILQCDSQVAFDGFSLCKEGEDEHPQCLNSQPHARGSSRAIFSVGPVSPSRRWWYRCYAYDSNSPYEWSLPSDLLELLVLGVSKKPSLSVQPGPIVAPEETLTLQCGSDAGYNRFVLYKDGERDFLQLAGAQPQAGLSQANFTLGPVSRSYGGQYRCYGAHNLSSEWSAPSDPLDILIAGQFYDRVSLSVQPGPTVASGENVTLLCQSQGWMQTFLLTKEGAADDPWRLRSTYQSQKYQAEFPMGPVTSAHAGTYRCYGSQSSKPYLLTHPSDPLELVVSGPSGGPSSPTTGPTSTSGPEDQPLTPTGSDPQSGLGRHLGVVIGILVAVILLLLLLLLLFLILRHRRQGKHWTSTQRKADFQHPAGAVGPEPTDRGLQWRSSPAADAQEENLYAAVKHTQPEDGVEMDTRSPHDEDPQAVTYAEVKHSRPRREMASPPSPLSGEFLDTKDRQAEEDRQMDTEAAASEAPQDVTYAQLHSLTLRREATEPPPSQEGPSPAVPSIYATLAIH
Assay: flow cytometry, HEK293-6E transfectants
Procedure: as §1

| Binder | MFI |
| --- | --- |
| B1 | 1060 MFI |
| B2 | 914 MFI |
| B3 | 1000 MFI |
| B4 | 1160 MFI |
| B5 | 1140 MFI |

Biological target: T7, human LILRB3 on HEK293-6E cells (human, UniProt O75022 24-631)
T7 construct: whole, on cells; also called hLILRB3
T7 sequence (O75022 24-631): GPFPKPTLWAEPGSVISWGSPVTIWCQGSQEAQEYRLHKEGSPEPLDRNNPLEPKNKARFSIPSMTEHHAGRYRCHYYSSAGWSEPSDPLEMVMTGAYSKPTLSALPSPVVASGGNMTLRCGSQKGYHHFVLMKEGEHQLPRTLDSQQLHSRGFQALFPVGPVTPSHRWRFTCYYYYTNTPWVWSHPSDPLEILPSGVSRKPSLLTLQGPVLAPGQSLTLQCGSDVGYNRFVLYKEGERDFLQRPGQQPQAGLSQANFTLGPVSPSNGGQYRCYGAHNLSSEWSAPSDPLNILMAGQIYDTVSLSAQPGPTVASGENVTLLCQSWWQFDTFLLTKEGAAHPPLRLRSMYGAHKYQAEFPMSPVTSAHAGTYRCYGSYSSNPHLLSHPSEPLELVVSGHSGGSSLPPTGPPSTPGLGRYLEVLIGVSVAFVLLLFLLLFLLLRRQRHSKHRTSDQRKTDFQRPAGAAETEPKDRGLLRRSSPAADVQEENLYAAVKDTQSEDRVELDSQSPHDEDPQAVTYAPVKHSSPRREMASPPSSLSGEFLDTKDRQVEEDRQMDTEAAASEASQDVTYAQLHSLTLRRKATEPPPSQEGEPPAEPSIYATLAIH
Assay: flow cytometry, HEK293-6E transfectants
Procedure: as §1

| Binder | MFI | binding result |
| --- | --- | --- |
| B1 | 96.2 MFI | no binding (tested: 1 µg/mL) |
| B2 | 90.1 MFI | no binding (tested: 1 µg/mL) |
| B3 | 84.7 MFI | no binding (tested: 1 µg/mL) |
| B4 | 97 MFI | no binding (tested: 1 µg/mL) |
| B5 | 98.7 MFI | no binding (tested: 1 µg/mL) |

Biological target: T8, human LILRB4 on HEK293-6E cells (human, UniProt Q8NHJ6 22-448)
T8 construct: whole, on cells; also called hLILRB4
Assay: flow cytometry, HEK293-6E transfectants
Procedure: as §1

| Binder | MFI | binding result |
| --- | --- | --- |
| B1 | 30.1 MFI | no binding (tested: 1 µg/mL) |
| B2 | 29.9 MFI | no binding (tested: 1 µg/mL) |
| B3 | 29.1 MFI | no binding (tested: 1 µg/mL) |
| B4 | 30.9 MFI | no binding (tested: 1 µg/mL) |
| B5 | 29.9 MFI | no binding (tested: 1 µg/mL) |

Biological target: T9, human LILRA5 on HEK293-6E cells (human, UniProt A6NI73 42-299)
T9 construct: whole, on cells; also called hLILRA5
T9 sequence (A6NI73 42-299): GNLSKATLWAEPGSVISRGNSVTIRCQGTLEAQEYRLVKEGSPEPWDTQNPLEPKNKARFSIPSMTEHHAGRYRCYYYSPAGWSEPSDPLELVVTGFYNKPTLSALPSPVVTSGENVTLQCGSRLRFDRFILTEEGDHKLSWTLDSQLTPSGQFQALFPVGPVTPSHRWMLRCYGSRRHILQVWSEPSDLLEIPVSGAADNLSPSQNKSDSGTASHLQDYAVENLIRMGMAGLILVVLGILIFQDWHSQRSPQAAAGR
Assay: flow cytometry, HEK293-6E transfectants
Procedure: as §1

| Binder | MFI | binding result |
| --- | --- | --- |
| B1 | 75.3 MFI | no binding (tested: 1 µg/mL) |
| B2 | 76.7 MFI | no binding (tested: 1 µg/mL) |
| B3 | 75.7 MFI | no binding (tested: 1 µg/mL) |
| B4 | 74.6 MFI | no binding (tested: 1 µg/mL) |
| B5 | 77.8 MFI | no binding (tested: 1 µg/mL) |

Biological target: T10, human LILRA4 on HEK293-6E cells (human, UniProt P59901 24-499)
T10 construct: whole, on cells; also called hLILRA4
T10 sequence (P59901 24-499): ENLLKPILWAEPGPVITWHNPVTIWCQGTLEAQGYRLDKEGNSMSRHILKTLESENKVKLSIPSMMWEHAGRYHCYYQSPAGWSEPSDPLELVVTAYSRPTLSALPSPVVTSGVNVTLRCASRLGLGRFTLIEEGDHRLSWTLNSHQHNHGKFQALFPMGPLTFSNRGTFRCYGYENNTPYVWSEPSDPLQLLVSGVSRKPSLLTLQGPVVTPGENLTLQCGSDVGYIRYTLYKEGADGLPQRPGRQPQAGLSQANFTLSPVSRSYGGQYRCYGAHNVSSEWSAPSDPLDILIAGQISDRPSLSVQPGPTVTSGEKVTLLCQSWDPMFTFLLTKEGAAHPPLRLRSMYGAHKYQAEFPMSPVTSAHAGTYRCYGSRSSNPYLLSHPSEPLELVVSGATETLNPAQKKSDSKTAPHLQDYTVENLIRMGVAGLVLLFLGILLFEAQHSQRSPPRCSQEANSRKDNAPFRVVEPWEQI
Assay: flow cytometry, HEK293-6E transfectants
Procedure: as §1

| Binder | MFI | binding result |
| --- | --- | --- |
| B1 | 136 MFI | no binding (tested: 1 µg/mL) |
| B2 | 132 MFI | no binding (tested: 1 µg/mL) |
| B3 | 130 MFI | no binding (tested: 1 µg/mL) |
| B4 | 134 MFI | no binding (tested: 1 µg/mL) |
| B5 | 136 MFI | no binding (tested: 1 µg/mL) |

Biological target: T11, recombinant human LILRB2-His (human, UniProt Q8N423 22-461, limits assumed)
T11 construct: Bought protein; also called LILRB2 protein
T11 sequence (Q8N423 22-461 limits assumed): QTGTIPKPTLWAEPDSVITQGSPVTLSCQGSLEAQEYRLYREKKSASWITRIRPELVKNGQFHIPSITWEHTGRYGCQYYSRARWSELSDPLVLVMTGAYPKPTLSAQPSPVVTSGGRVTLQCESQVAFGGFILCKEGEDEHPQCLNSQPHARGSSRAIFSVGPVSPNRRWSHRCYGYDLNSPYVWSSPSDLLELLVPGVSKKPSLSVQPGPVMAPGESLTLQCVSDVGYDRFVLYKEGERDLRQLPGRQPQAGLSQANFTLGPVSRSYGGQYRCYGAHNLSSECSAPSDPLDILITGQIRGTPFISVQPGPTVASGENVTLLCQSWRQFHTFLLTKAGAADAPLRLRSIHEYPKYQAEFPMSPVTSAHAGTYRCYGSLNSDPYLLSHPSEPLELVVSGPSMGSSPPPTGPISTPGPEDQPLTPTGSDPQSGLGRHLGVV
Assay: MSD ELISA, coated antigen, purified IgG1
Procedure: (§2) Recombinant human and cynomolgus LILRB1 proteins (R&D Systems, No. 8989-T2-050; ACROBiosystems, No. CDJ-C52H3) and recombinant human and cynomolgus LILRB2 proteins (ACROBiosystems, No. LI2-H5220; No. L12-C52H3) were diluted in PBS to 4 μg/mL and added to a multi-array 384-well high-binding plates (MSD, No. L21XA4) at 10 μL/well and incubated at 4° C. overnight. The plates were washed several times with Wash Buffer (0.05% Tween® 20 in PBS), using a microplate washer and then blocked with 70 μL/well of 5% BSA in PBS for 1 hour (h) at room temperature (RT) with shaking at 700 rpm. After blocking, 20 μL/well of anti-LILRB2/LILRB1 antibodies or isotype control were added to the plates, and the plates were sealed and incubated for 2 h at RT with shaking at 700 rpm. After primary antibody binding, plates were washed five times with 70 μL/well of Wash Buffer (0.05% Tween® 20 in PBS) using a microplate washer. Secondary detection antibody (SULFO-TAG™-labeled goat anti-human IgG antibody (MSD, No. R32AJ-1)) was diluted to 4 μg/mL in assay diluent (1% BSA in PBS) and 10 μL/well was added to plates and incubated at RT protected from light for 1 h, with shaking at 700 rpm. Following incubation, plates were washed five times with Wash Buffer, using a microplate washer. After removal of the final wash, 35 μL/well of MSD Gold Read Buffer B (MSD, No. R60AM-4) was added to all wells using a Multidrop combo washer/dispenser, and plates were read using MESO Sector 600MM instrument (MSD) within 5 minutes (min) after addition of Read Buffer. Signals as counts per minute (cpm) were recorded. EC₅₀ values were calculated using GraphPad Prism based on log concentration of the primary antibodies versus cpm values.

| Binder | EC50 |
| --- | --- |
| B1 | 30.7 ng/mL |
| B2 | 25.3 ng/mL |
| B3 | 20.3 ng/mL |
| B4 | 28.4 ng/mL |
| B5 | 21.6 ng/mL |

Biological target: T12, recombinant human LILRB1-His (human, UniProt Q8NHL6 24-458)
T12 construct: Bought protein; also called LILRB1 protein
T12 sequence (Q8NHL6 24-458 limits assumed): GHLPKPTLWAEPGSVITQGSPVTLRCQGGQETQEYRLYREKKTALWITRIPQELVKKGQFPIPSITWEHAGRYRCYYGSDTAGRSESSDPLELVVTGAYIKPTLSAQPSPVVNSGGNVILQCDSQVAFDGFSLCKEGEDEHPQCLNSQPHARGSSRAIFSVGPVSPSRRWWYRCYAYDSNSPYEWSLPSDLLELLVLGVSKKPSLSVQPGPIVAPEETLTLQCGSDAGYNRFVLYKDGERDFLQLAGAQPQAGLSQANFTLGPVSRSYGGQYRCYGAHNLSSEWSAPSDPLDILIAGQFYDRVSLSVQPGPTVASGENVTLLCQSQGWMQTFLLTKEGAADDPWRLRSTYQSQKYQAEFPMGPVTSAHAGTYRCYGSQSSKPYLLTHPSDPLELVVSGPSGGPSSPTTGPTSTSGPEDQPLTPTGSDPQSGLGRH
Assay: MSD ELISA, coated antigen, purified IgG1
Procedure: as §2

| Binder | EC50 |
| --- | --- |
| B1 | 8.64 ng/mL |
| B2 | 8.18 ng/mL |
| B3 | 5.45 ng/mL |
| B4 | 9.19 ng/mL |
| B5 | 5.63 ng/mL |

Biological target: T2, human LILRB2 on cells
Assay: flow cytometry, LILRB2-HEK293T cells, AF647-labelled antibody
Procedure: While LILRB2 expression is mostly restricted to myeloid cells, LILRB1 has a broader expression on immune cell subsets, including B cells, T cells and NK cells.
Frozen cells were removed from storage in vapor phase liquid nitrogen and thawed by gentle swirling in a water bath at 37° C., then resuspended in DMEM media with 10% FBS. Cells were placed in a 15 mL conical tube and centrifuged at 300×g for 5 min, then supernatant was removed. Cells were resuspended in DMEM+10% FBS at a cell density of 2×10⁵ cells/mL in a T75 flask for culturing, and incubated at 37° C., 5% CO₂ for 3 days before passaging. Cells were passaged when the cell density reached 1×10⁶ cell/mL. On the day of the assay, cells were centrifuged, then supernatant was removed. Cells were resuspended in Blocking Buffer B (FACS Buffer containing 10% FBS and 0.5 mg/mL human IgG1 (Athens Research, No. 16-16-090707-1M)+0.05% NaN₃, 5% (w/v)) in a 15 mL conical tube, then incubated at 4° C. for 30 min. […] Cells were incubated with antibodies at 4° C. for 1 h. Cells were washed twice in FACS Buffer (PBS containing 2 mM EDTA+1% FBS+0.05% NaN₃) and then stained with for 10 min with Zombie Violet™ fixable viability dye (BioLegend, No. 423114) at RT, washed with FACS Buffer and resuspend in 75 μL of FACS Buffer for acquisition on a BD FACSymphony™ or BD FACSCanto™ II flow cytometer (BD Biosciences), as described in Example 6.

| Binder | EC50 |
| --- | --- |
| B1 | 1.63 ng/mL |
| B2 | 1.07 ng/mL |
| B3 | 2.23 ng/mL |
| B4 | 1.25 ng/mL |
| B5 | 0.96 ng/mL |
